Experimental data taken from article PMC10684670.

B1: rhB7-H6-hFc recombinant protein, wild type [modified: N-linked glycans (removed on the plate by PNGase F in assay a2); N-linked glycans (removed on the plate by PNGase F in assay a2)] [human] / rhNKp30-his protein [human] (parent)
chain 1: LWVSQPPEIRTLEGSSAFLPCSFNASQGRLAIGSVTWFRDEVVPGKEVRNGTPEFRGRLAPLASSRFLHDHQAELHIRDVRGHDASIYVCRVEVLGLGVGTGNGTRLVVEKEHPQLG
chain 2: DLKVEMMAGGTQITPLNDNVTIFCNIFYSQPLNITSMGITWFWKSLTFDKEVKVFEFFGDHQEAFRPGAIVSPWRLKSGDASLRLPGIQLEEAGEYRCEVVVTPLKAQGTVQLEVVASPASRLLLDQVGMKENEDKYMCESSGFYPEAINITWEKQTQKFPHPIEISEDVITGPTIKNMDGTFNVTSCLKLNSSQEDPGTVYQCVVRHASLHTPLRSNFTLTAARHSLSETEKTDNFS
B2: B7-H6, wild type, stably expressed on B7-H6 knockout 293T cells [modified: N-linked glycans at N43, N57, N174, N208, N216 and N242; N-linked glycans at N43, N57, N174, N208, N216 and N242] [human] / rhNKp30-his protein [human] (parent)
chain 1: B1 chain 1
chain 2: DLKVEMMAGGTQITPLNDNVTIFCNIFYSQPLNITSMGITWFWKSLTFDKEVKVFEFFGDHQEAFRPGAIVSPWRLKSGDASLRLPGIQLEEAGEYRCEVVVTPLKAQGTVQLEVVASPASRLLLDQVGMKENEDKYMCESSGFYPEAINITWEKQTQKFPHPIEISEDVITGPTIKNMDGTFNVTSCLKLNSSQEDPGTVYQCVVRHASLHTPLRSNFTLTAARHSLSETEKTDNFSIHWWPISFIGVGLVLLIVLIPWKKICNKSSSAYTPLKCILKHWNSFDTQTLKKEHLIFFCTRAWPSYQLQDGEAWPPEGSVNINTIQQLDVFCRQEGKWSEVPYVQAFFALRDNPDLCQCCRIDPALLTVTSGKSIDDNSTKSEKQTPREHSDAVPDAPILPVSPIWEPPPATTSTTPVLSSQPPTLLLPLQ

Variants of: B1
Test: ELISA
Conditions: with rhNKp30-his protein [human]; no PNGase F pretreatment; read at the highest NKp30 conc. tested, 2 (unit not printed in this panel); parent: 1.7; read off a plot

Row | response [OD] | Variant
1 | 1.5 | chain 2 N33Q

Same assay, conditions: with rhNKp30-his protein [human]; pretreated with denatured PNGase F; read at the highest NKp30 conc. tested, 2 (unit not printed in this panel); read off a plot

Row | response [OD] | Variant
2 | 1.4 | chain 2 N33Q

Variants of: B2
Test: flow cytometry on cells
Conditions: with rhNKp30-his protein [human]; 293T cells stably expressing B7-H6, stained with his-tagged NKp30; parent: 1; read off a plot

Row | Variant | ratio to parent
3 | chain 2 N19Q | 0.14
4 | chain 2 N150Q | 0.8
5 | chain 2 N33Q | 0.57

Further lines, results first:

Row | ratio to parent | Variant
6 | 0.42 | chain 2 N192Q
7 | 0.86 | chain 2 N218Q
8 | 0.22 | chain 2 N184Q
